B1: Glucocorticoid receptor, P04150 (parent)
chain: MDSKESLTPGREENPSSVLAQERGDVMDFYKTLRGGATVKVSASSPSLAVASQSDSKQRRLLVDFPKGSVSNAQQPDLSKAVSLSMGLYMGETETKVMGNDLGFPQQGQISLSSGETDLKLLEESIANLNRSTSVPENPKSSASTAVSAAPTEKEFPKTHSDVSSEQQHLKGQTGTNGGNVKLYTTDQSTFDILQDLEFSSGSPGKETNESPWRSDLLIDENCLLSPLAGEDDSFLLEGNSNEDCKPLILPDTKPKIKDNGDLVLSSPSNVTLPQVKTEKEDFIELCTPGVIKQEKLGTVYCQASFPGANIIGNKMSAISVHGVSTSGGQMYHYDMNTASLSQQQDQKPIFNVIPPIPVGSENWNRCQGSGDDNLTSLGTLNFPGRTVFSNGYSSPSMRPDVSSPPSSSSTATTGPPPKLCLVCSDEASGCHYGVLTCGSCKVFFKRAVEGQHNYLCAGRNDCIIDKIRRKNCPACRYRKCLQAGMNLEARKTKKKIKGIQQATTGVSQETSENPGNKTIVPATLPQLTPTLVSLLEVIEPEVLYAGYDSSVPDSTWRIMTTLNMLGGRQVIAAVKWAKAIPGFRNLHLDDQMTLLQYSWMFLMAFALGWRSYRQSSANLLCFAPDLIINEQRMTLPCMYDQCKHMLYVSSELHRLQVSYEEYLCMKTLLLLSSVPKDGLKSQELFDEIRMTYIKELGKAIVKREGNSSQNWQRFYQLTKLLDSMHEVVENLLNYCFQTFLDKTMSIEFPEMLAEIITNQIPKYSNGNIKKLLFHQK

In the series the parent is B1. To be noted: Homo sapiens; pH 7.8; Thermal; CD; Tris-HCl 25mM; structure 1M2Z; whole UniProt chain shown.
Regarding A605V M752T V702A, the Tm was 53.6 °C. For F602S A605V M752T, the midpoint of thermal melting (Tm) is 56 °C.

A605V M752T: the melting temperature (Tm) came out at 51.5 °C. Take V702A: the Tm was 47.2 °C. The result for A605V reads 49.3 °C. As to F602S, the Tm was found to be 50.3 °C. In the case of F602S A605V, the Tm was 54 °C. As for M752T, the midpoint of thermal melting (Tm) amounted to 48.6 °C. Turning to E705G, the Tm came to 46.6 °C. A605V M752T E705G: the Tm was 52.9 °C. The result for A605V M752T V702A E705G reads 54.4 °C; that for F602S A605V M752T M560K, 49.9 °C; that for F602S A605V M752T V702A E705G, 58.6 °C.

Broadly, the Tm is the temperature at which the thermal transition is half complete.

Source of the values: FireProtDB (doi:10.1016/j.jmb.2010.08.048).
